According to US20130028888A1 (AERES BIOMEDICAL, published 2013):

Columns and labels:
[1] = target: T1, human CD22 expressed on the cell surface (human, UniProt P20273 20-847); assay: cell ELISA on BHK cells expressing human CD22, COS-7 supernatant, OD 655 nm
T1 construct: whole, on cells; One entry covers all cell-surface formats (BHK-CD22, CHO, COS, Daudi, human B cells); also called hCD22; BHK-CD22

[2] = target: T1, human CD22 expressed on the cell surface; assay: cell ELISA on BHK cells expressing human CD22, OD 655 nm
[3] = target: T1, human CD22 expressed on the cell surface; assay: cell ELISA on BHK cells expressing human CD22, goat anti-mouse Ig-HRP, OD 450 nm
Excerpt: The BHK-CD22 binding assay was used to test the binding activity of the chHB227 antibody in the transiently transformed COS 7 culture supernatants. A goat anti-human Ig-HRP conjugate (Sigma Chemicals) was used to detect binding of chHB22.7 mAb while a goat anti-mouse Ig-HRP conjugate (Southern Biotechnology) was used to detect binding of the parental mouse HB22.7 mAb. The bound HRP conjugates were exposed to the substrate o-phenyldiamine (OPD) and the resulting products detected at 450 nm.

[4] = target: T1, human CD22 expressed on the cell surface; assay: BHK-CD22 cell ELISA

Binder | EC50 (read off the curve) [1] [µg/mL] | further results
chimeric HB22.7 antibody chHB227 (chH + chL) (antibody, human IgG1, V domains shown, Mouse HB22.7 variable regions on human IgG1 and kappa constant regions (vectors pG1D20, pKN10); Transient COS-7 supernatant; also called CH+CK; fully chimeric antibody) VH: QVQLKESGPGLVAPSQSLSITCTVSGFSLSDYGVNWVRQIPGKGLEWLGIIWGDGRTDYNSALKSRLNISKDNSKSQVFLKMNSLKADDTARYYCARAPGNRAMEYWGQGTSVTVS VL: SIVMTQTPKFLLVSAGDRITLTCKASQSVTNDVAWYQQKPGQSPKLLIYYASNRYTGVPDRFTGSGYGTDFTFTISTVQAEDLAVYFCQQDYRSPWTFGGGTKLEI | ~0.1 | EC50 (read off the curve) [2]: ~0.3 µg/mL
parental mouse monoclonal anti-CD22 antibody HB22.7 (antibody, V domains shown, Mouse hybridoma antibody (ATCC HB11347); Labelled with Alexa-fluor 488 or 647 in some cell assays; also called murine HB22.7; mouse HB22.7) VH: QVQLKESGPGLVAPSQSLSITCTVSGFSLSDYGVNWVRQIPGKGLEWLGIIWGDGRTDYNSALKSRLNISKDNSKSQVFLKMNSLKADDTARYYCARAPGNRAMEYWGQGTSVTVS VL: SIVMTQTPKFLLVSAGDRITLTCKASQSVTNDVAWYQQKPGQSPKLLIYYASNRYTGVPDRFTGSGYGTDFTFTISTVQAEDLAVYFCQQDYRSPWTFGGGTKLEI | – | EC50 (read off the curve) [3]: ~80 ng/mL
HB227RHC heavy chain + chimeric HB22.7 light chain (chL) (antibody, human IgG1, V domains shown, Human IgG1/kappa constants; COS-7 supernatant; also called RHC+chL) VH: QVQLQESGPALVKPTQTLTLTCTFSGFSLSDYGVNWIRQPPGKALEWLGIIWGDGRTDYNSALKSRLSISKDNSKNQVVLRMTNVDPVDTATYFCARAPGNRAMEYWGQGTVVTVSS VL: SIVMTQTPKFLLVSAGDRITLTCKASQSVTNDVAWYQQKPGQSPKLLIYYASNRYTGVPDRFTGSGYGTDFTFTISTVQAEDLAVYFCQQDYRSPWTFGGGTKLEI | – | fold binding relative to chimeric light chain with HB227RHB [4]: ~2 fold

Second part, led by results:

EC50 (read off the curve) [1] [µg/mL] | Binder | further results
~0.2 | humanized antibody HB227RHF + HB227RKC (antibody, human IgG1, V domains shown, Human IgG1/kappa constants; COS-7 supernatant; also called RHF+RKC; humanized (RHF+RKC) antibody) VH: QVQLQESGPALVKPTQTLTLTCTVSGFSLSDYGVNWIRQPPGKALEWLGIIWGDGRTDYNSALKSRLSISKDNSKNQVVLRMTNVDPVDTATYFCARAPGNRAMEYWGQGTVVTVSS VL: DIVMTQSPSSLSASVGDRVTITCKASQSVTNDVAWYQQKPGKAPKLLIYYASNRYTGVPDRFSGSGYGTDFTLTISSLQPEDFATYFCQQDYRSPWTFGGGTKVEIKR | –
~0.1 | HB227RHF heavy chain + chimeric HB22.7 light chain (chL) (antibody, human IgG1, V domains shown, Human IgG1/kappa constants; COS-7 supernatant; also called HB227RHF+chL; RHF+chL) VH: QVQLQESGPALVKPTQTLTLTCTVSGFSLSDYGVNWIRQPPGKALEWLGIIWGDGRTDYNSALKSRLSISKDNSKNQVVLRMTNVDPVDTATYFCARAPGNRAMEYWGQGTVVTVSS VL: SIVMTQTPKFLLVSAGDRITLTCKASQSVTNDVAWYQQKPGQSPKLLIYYASNRYTGVPDRFTGSGYGTDFTFTISTVQAEDLAVYFCQQDYRSPWTFGGGTKLEI | –
